Test results: the RNAGym collection of RNA variant scans (doi:10.1093/nar/gkz1192)

B1: CPEB3 Ribozyme (parent)
chain: UAACAGGGGGCCACAGCAGAAGCGUUCACGUCGCAGCCCCUGUCAGAUUCUGGUGAAUCUGCGAAUUCUGCUGUAUAUCUC

Variants of: B1
Assay: self-cleavage, relative activity (ratio to wild type); higher = more cleavage; in vitro, sequencing
Method in brief: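 CPEB3 self-cleaving ribozyme mutant libraries were made by rounds of error-prone PCR, barcoded, and transcribed in vitro with T7 RNA polymerase for 5 hours at 37°C. Cleavage occurred during transcription and a 15 min DNase I step before EDTA stop. RNAs were reverse transcribed with template switching and Illumina-sequenced, with DNA sequencing mapping barcodes to variants. Relative activity is the variant's cleaved/total read fraction divided by wild type's (minimum 5 reads), averaged across three batches.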

Variant | self-cleavage
A20G A35G | 1.25
A20G A35U | 0.34
A20G A45C | 0.24
A20G A45G | 0.61
A20G A45U | 0.3
A20G A47C | 0.44
A20G A47G | 0.75
A20G A47U | 0.42
A20G A56G | 0.66
A20G A56U | 0.47
A20G A57C | 0.26
A20G A57G | 0.7
A20G A57U | 0.53
A20G A64C | 0.53
A20G A64G | 0.65
A20G A64U | 0.31
A20G A65C | 0.13
A20G A65G | 0.32
A20G A65U | 0.29
A20G A75G | 0.81
A20G A75U | 0.71
A20G A77C | 0.79
A20G A77G | 0.91
A20G A77U | 0.83

Variant | self-cleavage
A20G C23U | 0.38
A20G C27A | 0.16
A20G C27U | 0.47
A20G C29G | 0.39
A20G C29U | 0.36
A20G C32A | 0.27
A20G C32G | 0.12
A20G C32U | 0.22
A20G C34A | 0.11
A20G C37A | 0.41
A20G C37G | 0.78
A20G C37U | 0.62
A20G C38A | 0.37
A20G C38G | 0.12
A20G C38U | 0.37
A20G C39A | 0.37
A20G C39U | 0.63
A20G C40A | 0.23
A20G C40U | 0.46
A20G C44A | 0.32
A20G C44U | 0.21
A20G C50A | 0.89
A20G C50G | 0.57
A20G C50U | 0.99

Variant | self-cleavage
A20G C59G | 0.45
A20G C59U | 0.82
A20G C62G | 0.17
A20G C62U | 0.2
A20G C68A | 0.24
A20G C68U | 0.75
A20G C71A | 0.15
A20G C71G | 0.14
A20G C71U | 0.56
A20G C79A | 1.09
A20G C79G | 1.09
A20G C79U | 0.85
A20G C81A | 1.09
A20G C81G | 0.88
A20G C81U | 1.09
A20G G22A | 0.46
A20G G24A | 0.29
A20G G24U | 0.14
A20G G30A | 0.3
A20G G30C | 0.24
A20G G30U | 0.25
A20G G33A | 0.35
A20G G33C | 0.14
A20G G33U | 0.29

Variant | self-cleavage
A20G G36A | 0.36
A20G G42A | 0.53
A20G G42U | 0.22
A20G G46A | 0.26
A20G G46C | 0.11
A20G G46U | 0.23
A20G G52A | 0.9
A20G G52U | 1.12
A20G G53A | 0.98
A20G G53U | 0.69
A20G G55A | 0.58
A20G G55U | 0.62
A20G G61U | 0.39
A20G G63A | 0.63
A20G G63C | 0.63
A20G G63U | 0.83
A20G G70A | 0.33
A20G G70C | 0.19
A20G G73A | 1.22
A20G G73U | 1.19
A20G U25A | 0.27
A20G U25C | 0.3
A20G U25G | 0.41
A20G U26A | 0.77

Variant | self-cleavage
A20G U26C | 0.37
A20G U26G | 0.36
A20G U31A | 0.37
A20G U31C | 0.56
A20G U31G | 0.58
A20G U41A | 0.28
A20G U41C | 0.89
A20G U41G | 0.35
A20G U43A | 1.05
A20G U43C | 0.4
A20G U43G | 0.44
A20G U48A | 0.38
A20G U48C | 0.4
A20G U48G | 0.31
A20G U49A | 0.34
A20G U49C | 0.31
A20G U49G | 0.28
A20G U51A | 0.8
A20G U51C | 0.85
A20G U51G | 0.82
A20G U54A | 0.97
A20G U54C | 0.88
A20G U54G | 0.52
A20G U58A | 0.27

Variant | self-cleavage
A20G U58C | 0.36
A20G U58G | 0.11
A20G U60A | 0.35
A20G U60C | 0.34
A20G U66A | 0.33
A20G U66C | 0.37
A20G U66G | 0.37
A20G U67A | 0.55
A20G U67C | 1.01
A20G U67G | 0.25
A20G U69A | 0.34
A20G U69C | 0.5
A20G U69G | 0.42
A20G U72A | 0.46
A20G U72C | 0.84
A20G U72G | 0.63
A20G U74A | 1.19
A20G U74C | 1.17
A20G U74G | 1.17
A20G U76A | 1.03
A20G U76C | 0.92
A20G U76G | 0.99
A20G U78A | 0.79
A20G U78C | 0.85

Variant | self-cleavage
A20G U80A | 1.03
A20G U80C | 1.03
A20G U80G | 1.14
A20U | 0.33
A20U A21G | 0.23
A20U A21U | 0.29
A20U A28C | 0.18
A20U A28G | 0.22
A20U A28U | 0.19
A20U A35G | 0.87
A20U A35U | 0.22
A20U A45C | 0.12
A20U A45G | 0.28
A20U A45U | 0.14
A20U A47G | 0.33
A20U A56C | 0.54
A20U A56G | 0.25
A20U A56U | 0.25
A20U A57G | 0.23
A20U A57U | 0.58
A20U A64G | 0.35
A20U A64U | 0.26
A20U A65C | 0.1
